According to patent US20190256836:

System: T1, recombinant Factor C protein from Tachypleus tridentatus produced in Leishmania tarentolae
T1 sequence: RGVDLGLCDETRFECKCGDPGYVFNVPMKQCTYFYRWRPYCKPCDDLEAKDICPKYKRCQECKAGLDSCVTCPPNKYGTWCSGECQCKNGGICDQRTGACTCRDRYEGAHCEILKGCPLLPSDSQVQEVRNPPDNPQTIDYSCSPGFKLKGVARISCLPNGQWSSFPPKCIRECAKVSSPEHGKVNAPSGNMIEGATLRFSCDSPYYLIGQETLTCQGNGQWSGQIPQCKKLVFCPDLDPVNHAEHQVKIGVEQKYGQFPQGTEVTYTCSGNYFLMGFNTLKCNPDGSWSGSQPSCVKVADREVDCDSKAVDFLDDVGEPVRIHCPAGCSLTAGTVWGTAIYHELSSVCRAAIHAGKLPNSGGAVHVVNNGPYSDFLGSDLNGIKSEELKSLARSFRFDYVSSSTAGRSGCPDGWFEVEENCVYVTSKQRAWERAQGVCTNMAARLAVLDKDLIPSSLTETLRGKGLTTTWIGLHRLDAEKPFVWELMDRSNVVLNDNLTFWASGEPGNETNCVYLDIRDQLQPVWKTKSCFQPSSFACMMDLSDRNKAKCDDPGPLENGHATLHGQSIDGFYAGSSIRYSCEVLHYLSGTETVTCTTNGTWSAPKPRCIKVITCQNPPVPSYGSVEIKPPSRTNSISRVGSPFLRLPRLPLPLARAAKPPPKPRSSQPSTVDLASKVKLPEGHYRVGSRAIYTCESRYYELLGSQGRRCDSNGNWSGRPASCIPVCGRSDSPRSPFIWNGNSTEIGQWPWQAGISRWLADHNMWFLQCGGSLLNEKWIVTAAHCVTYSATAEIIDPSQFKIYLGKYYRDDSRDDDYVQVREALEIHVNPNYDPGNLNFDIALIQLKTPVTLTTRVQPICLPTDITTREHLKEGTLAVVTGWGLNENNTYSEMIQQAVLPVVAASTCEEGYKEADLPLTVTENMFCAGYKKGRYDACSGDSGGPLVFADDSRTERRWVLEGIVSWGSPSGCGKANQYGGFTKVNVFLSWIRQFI
Details: in U/mg

Substance: chymotrypsin
- specific activity of activated Factor C (hydrolysis of Boc-Val-Pro-Arg-AMC) (Units/mg protein): 0.658
